Measured values: patent US20030235557A1

Key:
[1] = biological target: mouse B6 class I antigens (D^b or K^b molecules on the surface of RMA-S cells) (mouse (C57Bl/6)); assay: RMA-S class I stabilisation, peptide 25 ug/ml, flow cytometry with FITC anti-D^b or anti-K^b
[2] = biological target: mouse B6 class I antigens (D^b or K^b molecules on the surface of RMA-S cells) (mouse (C57Bl/6)); assay: binding of 9mer peptides within p117-139 to mouse B6 (H-2^b) class I, RMA-S assay as in Example 4

Sequence of mouse B6 class I antigens (D^b or K^b molecules on the surface of RMA-S cells) (mouse (C57Bl/6)) (P01899 25-362, chain 1 of 2): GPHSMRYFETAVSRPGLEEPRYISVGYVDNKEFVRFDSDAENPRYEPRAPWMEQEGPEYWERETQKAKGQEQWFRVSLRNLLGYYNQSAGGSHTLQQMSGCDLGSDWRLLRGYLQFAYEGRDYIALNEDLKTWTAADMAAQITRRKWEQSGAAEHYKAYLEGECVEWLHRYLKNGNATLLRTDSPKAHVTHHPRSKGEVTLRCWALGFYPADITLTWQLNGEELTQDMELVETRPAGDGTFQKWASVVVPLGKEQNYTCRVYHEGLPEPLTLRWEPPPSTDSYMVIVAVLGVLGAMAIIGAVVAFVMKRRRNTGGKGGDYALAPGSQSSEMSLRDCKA
Sequence of mouse B6 class I antigens (D^b or K^b molecules on the surface of RMA-S cells) (mouse (C57Bl/6)) (P01887 21-119, chain 2 of 2, further chain): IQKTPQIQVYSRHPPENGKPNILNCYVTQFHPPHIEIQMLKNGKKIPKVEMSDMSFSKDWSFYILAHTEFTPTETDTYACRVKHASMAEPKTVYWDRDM

Q: With CMTWNQMNL [WT1 peptide p235-243 …] as the binder, how does the Binding Affinity to Mouse MHC Class I (% increase of D^b or K^b on RMA-S cells) [1] read?
A: 33.6%

Q: Which Binding Affinity to Mouse MHC Class I (% increase of D^b or K^b on RMA-S cells) [1] does the source give for SCLESQPAI [WT1 peptide human p136-144 …] here?
A: 52%

Q: With ALLPAVPSL [WT1 peptide human p10-18 …] as the binder, how does the Binding Affinity to Mouse MHC Class I (% increase of D^b or K^b on RMA-S cells) [1] read?
A: 2.2%

Q: How did the Binding Affinity to Mouse MHC Class I (% increase of D^b or K^b on RMA-S cells) [1] turn out when NLYQMTSQL [WT1 peptide p225-233 …] was run?
A: 5.8%

Q: How did the Binding Affinity to Mouse MHC Class I (% increase of D^b or K^b on RMA-S cells) [1] turn out when GCNKRYFKL [WT1 peptide p329-337 …] was run?
A: 1.2%

Q: For YSSDNLYQM [WT1 peptide p221-229 …], which Binding Affinity to Mouse MHC Class I (% increase of D^b or K^b on RMA-S cells) [1] is on record?
A: 0.8%

Q: For QMTSQLECM [WT1 peptide p228-236 …], which Binding Affinity to Mouse MHC Class I (% increase of D^b or K^b on RMA-S cells) [1] is on record?
A: 1.2%

Q: For NQMNLGATL [WT1 peptide p239-247 …], which Binding Affinity to Mouse MHC Class I (% increase of D^b or K^b on RMA-S cells) [1] is on record?
A: 1%

Q: PSQASSGQA [WT1 peptide P117-125 …] was tested. Which Binding Affinity to Mouse MHC Class I [2] did it give?
A: 2%

Q: How did the Binding Affinity to Mouse MHC Class I [2] turn out when SQASSGQAR [WT1 peptide P118-126 …] was run?
A: 2%

Q: How did the Binding Affinity to Mouse MHC Class I [2] turn out when QASSGQARM [WT1 peptide P119-127 …] was run?
A: 2%

Q: Which Binding Affinity to Mouse MHC Class I [2] does the source give for ASSGQARMF [WT1 peptide P120-128 …] here?
A: 1%

Q: Which Binding Affinity to Mouse MHC Class I [2] does the source give for SSGQARMFP [WT1 peptide P121-129 …] here?
A: 1%

Q: How did the Binding Affinity to Mouse MHC Class I [2] turn out when QARMFPNAP [WT1 peptide P124-132 …] was run?
A: 1%

Q: For ARMFPNAPY [WT1 peptide P125-133 …], which Binding Affinity to Mouse MHC Class I [2] is on record?
A: 1%

Q: How did the Binding Affinity to Mouse MHC Class I [2] turn out when MFPNAPYLP [WT1 peptide P127-135 …] was run?
A: 2%

Q: For FPNAPYLPS [WT1 peptide P128-136 …], which Binding Affinity to Mouse MHC Class I [2] is on record?
A: 1%

Q: With PNAPYLPSC [WT1 peptide P129-137 …] as the binder, how does the Binding Affinity to Mouse MHC Class I [2] read?
A: 1%

Q: Which Binding Affinity to Mouse MHC Class I [2] does the source give for NAPYLPSCL [WT1 peptide P130-138 …] here?
A: 79%

Q: With APYLPSCLE [WT1 peptide P131-139 …] as the binder, how does the Binding Affinity to Mouse MHC Class I [2] read?
A: 1%
